Data reported in the supplement of paper PMC10567573.

B1: MMP1 (parent)
chain: MFFKDRFYMRTNPFYPEVELNFIS

Variants of: B1
Test: protein stability index of a GFP-peptide fusion (GPS, HEK-293T) (PSI 1-6); higher = more stable
Conditions: c terminus: a fixed tail appended
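Note: lentivirally expressed fusions sorted by FACS into six bins by GFP to DsRed ratio, PSI derived from sequencing read proportions per bin multiplied by bin number.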

Protein stability index, by site and new letter:
E19: D 2.34; Q 2.3; W 1.3; L 2.64; N 3.6; C 3.18; F 3.27; M 1.47; H 3.47; G 3.69; Y 3.1; A 3.48; T 2.44; S 2.61; I 3.25; V 2.27; K 4.43; P 3.53
P13: I 2.85; W 3.9; D 3.62; Y 2.35; S 1.94; M 2.66; A 2.38; Q 1.76; K 2.58; V 3.62; G 2.62; N 2.29; L 2.37; H 2.46; C 2.68; R 3.31
N12: V 2.43; T 2.56; C 3.02; Y 3.12; M 2.94; S 2.74; F 3.09; E 4.11; Q 2.67; R 3.81; G 2.91; W 3; I 2; H 2.87; P 3.4; L 2.51; K 3.17; D 3.11
T11: S 2.32; D 3.5; H 1.78; M 3.47; C 3.79; E 3.11; A 3.18; Q 2.59; R 2.28; V 4.1; K 3.17; N 2.96; I 1.63; P 3.77; G 2.64; W 3.68; L 2.72
P16: Y 2.82; M 1.74; Q 3.75; G 3.15; H 2.95; F 2.88; S 2.96; L 1.75; D 2.18; I 3.59; E 3.49; K 2.25; R 1.98; N 3.95; W 2.44; C 2.71; T 3.07; V 3.21
E17: T 1.84; P 1.8; I 3.71; Y 2.42; W 3.19; V 2.99; F 2.19; A 2.9; R 2.57; C 4.42; S 2.15; K 2.21; L 2.55; D 1.97; G 2.52; N 3.69; M 2.78; H 3.02
F14: Y 2.96; V 3.62; I 2.54; K 3.31; R 3.1; E 3.46; D 3.86; Q 2.58; C 2.65; M 1.73; N 2.87; H 2.82; A 3.69; G 2.92; T 2.33; L 2.62
V18: R 1.87; H 3.06; T 3.87; K 3.54; C 2.99; P 3.06; E 3.27; L 2.41; Q 2.35; I 2.84; M 2.52; Y 2.64; A 3.25; S 3.28; G 2.08; W 3.22; D 2.66; N 1.78; F 2.61
R10: Y 2.63; W 2.82; V 3
Y15: C 3.47; N 2.94; I 3.09; D 3.35; G 2.09; H 2.19; A 1.72; K 2.72; W 2.93; L 3.33; F 2.63; R 2.66; P 2.4; V 2.37; S 2.69; E 2.15; T 2.43; M 1.97; Q 1.34
L20: D 2.28; E 3.27; C 3.04; F 3.19; A 2.27
